Legend:
hFcγRIIIa-V158 (human) [1] = target: hFcγRIIIa-V158 (human) (UniProt P08637); assay: SPR (Carterra LSA), protein AG capture
hFcγRIIIa-V158 (human) [2] = target: hFcγRIIIa-V158 (human) (UniProt P08637); assay: SPR, further study

Sequence of hFcγRIIIa-V158 (human) (P08637 17-208 F176V limits assumed): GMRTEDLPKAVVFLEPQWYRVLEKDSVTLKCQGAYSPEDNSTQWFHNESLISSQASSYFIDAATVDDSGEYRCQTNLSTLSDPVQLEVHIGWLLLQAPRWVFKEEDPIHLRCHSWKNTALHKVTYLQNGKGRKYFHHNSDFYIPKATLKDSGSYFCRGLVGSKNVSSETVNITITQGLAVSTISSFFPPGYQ

Row | Fold-change relative to WT (hFcγRIIIa-V158 (human) [1]) [fold] | Kd (hFcγRIIIa-V158 (human) [1]) [nM] | koff (hFcγRIIIa-V158 (human) [1]) [s⁻¹] | kon (hFcγRIIIa-V158 (human) [1]) [M⁻¹ s⁻¹] | Fold Change vs. WT (hFcγRIIIa-V158 (human) [2]) [fold] | Kd (hFcγRIIIa-V158 (human) [2]) [nM] | koff (hFcγRIIIa-V158 (human) [2]) [s⁻¹] | kon (hFcγRIIIa-V158 (human) [2]) [M⁻¹ s⁻¹] | Substance
1 | 2.4 | 123 | 0.0786 | 637000 |  |  |  |  | A330Y_D376V_Y373W (antibody)
2 |  | 67.9 |  |  |  |  |  |  | A330Y_S267A_D376V_S298A (antibody)
3 |  |  |  |  | 6 | 80.1 | 0.0311 | 389000 | H268D, A330F, S298A (antibody)
4 |  |  |  |  | 3 | 159 | 0.0516 | 324000 | H268D, L314K (antibody)
5 |  |  |  |  |  | 85.1 |  |  | H268D, L314M, S298A (antibody)
6 |  |  |  |  | 4.9 | 96.5 | 0.0452 | 471000 | H268D, L314N (antibody)
7 |  |  |  |  | 3.1 | 152 | 0.0434 | 286000 | H268D, L314S (antibody)
8 |  |  |  |  | 10.2 | 46.8 | 0.0217 | 465000 | H268D, L314T, S298A (antibody)
9 | 4.4 | 66.3 | 0.019 | 287000 |  |  |  |  | H268D_A330Y_A339T_Y373W (antibody)
10 | 2 | 149 | 0.026 | 174000 |  |  |  |  | H268D_A330Y_L251W (antibody)
11 | 4.4 | 66.2 | 0.038 | 574000 |  |  |  |  | H268D_A330Y_L251W_D376V (antibody)
12 | 5.9 | 49.1 | 0.0189 | 385000 |  |  |  |  | H268D_A330Y_L314K (antibody)
13 | 4.1 | 71.7 | 0.025 | 349000 |  |  |  |  | H268D_A330Y_Y373W (antibody)
14 | 6.4 | 45.4 | 0.0126 | 278000 |  |  |  |  | H268D_A339T_S298A (antibody)
15 | 3.9 | 73.9 | 0.0243 | 328000 |  |  |  |  | H268D_L251F (antibody)
16 | 4.4 | 65.8 | 0.0253 | 385000 |  |  |  |  | H268D_L251F_L314G (antibody)
17 | 4.4 | 65.6 | 0.024 | 366000 |  |  |  |  | H268D_L251F_L314K (antibody)
18 | 3.3 | 88.3 | 0.025 | 283000 |  |  |  |  | H268D_L251F_L314M (antibody)
19 | 7.9 | 36.7 | 0.0125 | 340000 |  |  |  |  | H268D_L251F_L314M_S298A (antibody)
20 | 3.7 | 79.5 | 0.023 | 289000 |  |  |  |  | H268D_L251F_L314M_Y373W (antibody)
21 | 3.9 | 74.9 | 0.0231 | 309000 |  |  |  |  | H268D_L251F_L314N (antibody)
22 | 4 | 73 | 0.027 | 370000 |  |  |  |  | H268D_L251F_L314S (antibody)
23 |  | 68.2 |  |  |  |  |  |  | H268D_L251F_L314T (antibody)
24 | 3.4 | 84.4 | 0.0225 | 267000 |  |  |  |  | H268D_L251F_L314V (antibody)
25 | 1.8 | 163 | 0.0241 | 148000 |  |  |  |  | H268D_L251F_L314W (antibody)
26 | 3.3 | 88.2 | 0.0228 | 258000 |  |  |  |  | H268D_L251F_Y373W (antibody)

Row | Fold-change relative to WT (hFcγRIIIa-V158 (human) [1]) [fold] | Kd (hFcγRIIIa-V158 (human) [1]) [nM] | koff (hFcγRIIIa-V158 (human) [1]) [s⁻¹] | kon (hFcγRIIIa-V158 (human) [1]) [M⁻¹ s⁻¹] | Fold Change vs. WT (hFcγRIIIa-V158 (human) [2]) [fold] | Kd (hFcγRIIIa-V158 (human) [2]) [nM] | koff (hFcγRIIIa-V158 (human) [2]) [s⁻¹] | kon (hFcγRIIIa-V158 (human) [2]) [M⁻¹ s⁻¹] | Substance
27 |  | 32.1 |  |  |  |  |  |  | H268D_L251I_A330F_S298A (antibody)
28 | 2.7 | 107 | 0.047 | 438000 |  |  |  |  | H268D_L251Q (antibody)
29 | 21.9 | 13.3 | 0.0152 | 1.15e+06 |  |  |  |  | H268D_L251Q_L314E (antibody)
30 | 6.3 | 45.9 | 0.0246 | 536000 |  |  |  |  | H268D_L251Q_L314G (antibody)
31 | 3.1 | 93.9 | 0.03 | 319000 |  |  |  |  | H268D_L251Q_L314M (antibody)
32 |  | 72.8 |  |  |  |  |  |  | H268D_L251Q_L314M_Y373W (antibody)
33 | 4.1 | 70.2 | 0.0292 | 416000 |  |  |  |  | H268D_L251Q_Y373W (antibody)
34 |  | 25.2 |  |  |  |  |  |  | H268D_L251Q_Y373W_S298A (antibody)
35 | 4 | 72.8 | 0.0682 | 936000 |  |  |  |  | H268D_L251W (antibody)
36 | 3.9 | 74.6 | 0.044 | 590000 |  |  |  |  | H268D_L251W_A330Y_Y373W (antibody)
37 | 3.3 | 87.8 | 0.0476 | 542000 |  |  |  |  | H268D_L251W_L314K (antibody)
38 | 1.5 | 188 | 0.0564 | 300000 |  |  |  |  | H268D_L251W_L314M (antibody)
39 | 4.2 | 69.1 | 0.0269 | 389000 |  |  |  |  | H268D_L251W_L314M_S298A (antibody)
40 | 1.9 | 151 | 0.065 | 431000 |  |  |  |  | H268D_L251W_L314M_Y373W (antibody)
41 | 8.4 | 34.5 | 0.0223 | 647000 |  |  |  |  | H268D_L251W_L314N (antibody)
42 | 9.4 | 31.1 | 0.119 | 3.83e+06 |  |  |  |  | H268D_L251W_L314S (antibody)
43 |  | 51.7 |  |  |  |  |  |  | H268D_L251W_L314T_S298A (antibody)
44 | 3.1 | 92.8 | 0.0231 | 249000 |  |  |  |  | H268D_L251W_L314V (antibody)
45 | 2.4 | 123 | 0.049 | 397000 |  |  |  |  | H268D_L251W_S267D_Y373W (antibody)
46 | 6.3 | 46 | 0.0213 | 463000 |  |  |  |  | H268D_L251W_S298A (antibody)
47 |  | 86.8 |  |  |  |  |  |  | H268D_L251W_Y373W (antibody)
48 | 3.3 | 89.1 | 0.034 | 381000 |  |  |  |  | H268D_L251W_Y373W_S298A (antibody)
49 |  | 133 |  |  |  |  |  |  | H268D_L314K_L251Q (antibody)
50 | 7.6 | 38.4 | 0.0198 | 516000 |  |  |  |  | H268D_L314W_Y373W_A330M (antibody)
51 | 4.8 | 60.7 | 0.0212 | 348000 |  |  |  |  | H268D_S267D_L251I_A339T (antibody)
52 |  | 118 |  |  |  |  |  |  | H268E_L251Q_A339T_L314A (antibody)

Row | Fold-change relative to WT (hFcγRIIIa-V158 (human) [1]) [fold] | Kd (hFcγRIIIa-V158 (human) [1]) [nM] | koff (hFcγRIIIa-V158 (human) [1]) [s⁻¹] | kon (hFcγRIIIa-V158 (human) [1]) [M⁻¹ s⁻¹] | Fold Change vs. WT (hFcγRIIIa-V158 (human) [2]) [fold] | Kd (hFcγRIIIa-V158 (human) [2]) [nM] | koff (hFcγRIIIa-V158 (human) [2]) [s⁻¹] | kon (hFcγRIIIa-V158 (human) [2]) [M⁻¹ s⁻¹] | Substance
53 | 2.6 | 111 | 0.0308 | 276000 |  |  |  |  | H268E_L251W_L314I_A330F (antibody)
54 | 5.1 | 57.6 | 0.021 | 365000 |  |  |  |  | H268E_L314V_L251A_A330M (antibody)
55 |  | 104 |  |  |  |  |  |  | L251F (antibody)
56 |  | 204 |  |  |  |  |  |  | L251F_A339T_L314S_Y373W (antibody)
57 | 1.7 | 174 | 0.038 | 218000 |  |  |  |  | L251F_S267A_L314S (antibody)
58 | 0.2 | 1610 | 0.062 | 38500 |  |  |  |  | L251I_L314G_A339T_A330F (antibody)
59 |  | 286 |  |  |  |  |  |  | L314N_S267A_A330M_D376T (antibody)
60 | 1.5 | 190 | 0.035 | 184000 |  |  |  |  | L314V_A330F_Y373W_H268A (antibody)
61 | 1.6 | 179 | 0.045 | 252000 |  |  |  |  | L314W_A339T_A330M_D376T (antibody)
62 | 2.7 | 109 | 0.035 | 320000 |  |  |  |  | S267D_A330Y_A339T (antibody)
63 | 2 | 145 | 0.0406 | 279000 |  |  |  |  | S267D_A330Y_D376V (antibody)
64 | 2.6 | 111 | 0.0391 | 353000 |  |  |  |  | S267D_A330Y_L251W (antibody)
65 | 3.2 | 91.4 | 0.036 | 394000 |  |  |  |  | S267D_A330Y_L251W_D376V (antibody)
66 |  | 268 |  |  |  |  |  |  | S267D_A330Y_L314K (antibody)
67 | 2.3 | 124 | 0.0371 | 298000 |  |  |  |  | S267D_A330Y_Y373W (antibody)
68 |  | 208 |  |  |  |  |  |  | S267D_L314T_A339T (antibody)
69 | 2.3 | 124 | 0.036 | 290000 |  |  |  |  | S267D_L314W_L251H_D376V (antibody)
70 |  | 58.4 |  |  |  |  |  |  | S298A_A330Y_A339T (antibody)
71 | 3.1 | 93.3 | 0.0206 | 221000 |  |  |  |  | S298A_A330Y_A339T_Y373W (antibody)
72 | 3.8 | 77.2 | 0.0285 | 369000 |  |  |  |  | S298A_A330Y_D376V (antibody)
73 | 3.2 | 90.4 | 0.038 | 421000 |  |  |  |  | S298A_A330Y_L251W (antibody)
74 | 2.3 | 127 | 0.0308 | 243000 |  |  |  |  | S298A_A330Y_L251W_D376V (antibody)
75 | 3.3 | 88.4 | 0.0207 | 235000 |  |  |  |  | S298A_A330Y_L314K (antibody)
76 | 1.2 | 251 | 0.0344 | 137000 |  |  |  |  | S298A_A330Y_Y373W (antibody)
